We go through 3 substances from publication PMC6954420.

The data set concerns the target HP1α (mouse) (UniProt Q61686). Put plainly: BLI. The settings on record: K+, BLI: 100 mM KCl, 50 mM NaCl, 20 mM Na phosphate, pH 8 (G4) or pH 7 (i-motif, dsDNA), room temp, 500 nM oligo or titration, EMSA: 50 mM Tris-HCl pH 7.5, 100 mM …. A general note: In EMSA bound probe runs differently from free probe, usually more slowly.

Sequence of HP1α (mouse) (Q61686 whole entry): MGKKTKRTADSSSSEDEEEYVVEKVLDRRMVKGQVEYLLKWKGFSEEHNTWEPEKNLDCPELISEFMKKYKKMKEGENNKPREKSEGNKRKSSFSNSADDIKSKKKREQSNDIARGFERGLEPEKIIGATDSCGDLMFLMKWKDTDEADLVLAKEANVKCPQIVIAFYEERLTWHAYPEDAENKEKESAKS

A word on the Kd: it is the constant that tells how readily two partners part at equilibrium. Take TERRA96: the Kd is 2.5 nM. This lies in the single-digit nanomolar range.
In turn, TERRA45 returned a Kd (Fig S2 gives error 0.4) of 74.4 nM.
In the case of TERRA22, the Kd came out at 940 nM.
